Results taken from US20220073643A1 (NANJING GENSCRIPT BIOTECH, published 2022).

B1: 198F10B8 (antibody, V domains shown)
VH: QAYLQQSGAELVRSGASVRMSCKASGYTFSSYNMHWVKQTPGQGLEWIGYIYPGNGGTNYNQKFKDKATLTADTSSSTAFIQISSLTSEDSAVYFCLTGRGFAYWGQGTLVTVSA
VL: DIVMTQSPSSLTVTAGERVTMSCKSSQSLFNSGNQKNYLTWYQQKPGQPPKLLIYRASTRESGVPDRFTGSGSGTDFTLTISSVQAEDLAVYYCQNDYSYPLTFGVGTKLELK
B2: 277F1F8 (antibody, V domains shown)
VH: QAYLQQSGPELVRSGASVKMSCKASGYTFTSHNMHWVKQTPGQGLEWIGYINPGNGGNNYNQKFKGKATLTADTSSSTAYMQISSLTSEDSAVYFCARDYYGNSFAFWGQGTLVTVSA
VL: DIVMTQSPSSLTETAGEKVSMSCKSSQSLLNSGNQKNYLTWYQQKPGQPPKLLIYWASTRESGVPDRFTGSGSGTDFTLTISSVQAEDLAVYYCQNDYRFPFTFGAGTKLELK
B3: 279E8B8 (antibody, V domains shown)
VH: QAYLQQSGAELVRSGASVKISCKASGYTFASHNMHWVKQTPGQGLEWIGYIYPGNGGTKYNQKFTGKATLSADTSSSTAYLQISSLTSEDSAVYFCARDYFGNSFVYWGQGTLVTVSA
VL: DIVMTQSPSSLTEKAGEKVSMRCKSSQSLLNSGNQKNYLTWYQQKPGQPPKLLIYWASTRESGVPDRFTGSGSGTDFTLTISSVQADDLAVYYCQNDYMYPFTFGAGTKLELK
B4: 280F3B6 (antibody, V domains shown)
VH: QAYLQQSGAELVRSGASVKMSCKASGYTFTSHNMHWVKQTPGQGLEWIGYIYPGNGGTNYNQKFKGKATLTADTSSSTAYMQISSLTSEDSAVYFCTRDYYGNSFAYWGQGTLVTVSA
VL: DIVMTQSPSSLTEKAGERVSMSCKSSQSLFNSGNQKNYLTWYQQKPGQPPKLLIYWASTRESGVPDRFTGSGSGTDFTLTISSVQAEDLAVYYCQNDYWYPFTFGAGTKLELK
B5: 286C7F11 (antibody, V domains shown)
VH: QVQLKESGPGLVAPSQSLSITCTVSGFSLTDYGVSWIRQPPGKGLEWLGVIWNRGNTYYNSALKSRLSISKDNSKSQVFLRMNSLQTDDTAMYYCAKHDFLRFLDYWGQGTTLTVSS
VL: DVVMTQSPSSLTVTAGEKVTMSCKSSQSLLNSGNQKNYLTWYQQKPGQPPKILIYWASTRESGVPDRFTGSGSGTDFSLTITSVQAEDLAVYYCLNDYYYPLTFGAGTKLELK
B6: 292D9C7 (antibody, V domains shown)
VH: QVQLKESGPGLVAPSQSLSITCTVSGFSLTDYGVSWIRQPPGKGLEWLGVIWGGGNAYYNSALKSRLSISKDNSKSQVFLKMNSLRTDDTAMYYCAKNGLLRYLDYWGQGSTLTVSS
VL: DTVMTQSPSSLTVTAGEKVTMSCKSSQSLLNSGNQKNYLTWYQQKPGQPPKLLIYWASTRESGVPDRFTGSGSGRDFTLTISSVQVEDLAIYYCQNDYYYPLTFGAGTKVELK
B7: 370E2B12C3 (antibody, V domains shown)
VH: QVQLKESGPGLVAPSQSLSITCTVSGFSLTTYGVHWVRQPPGKGLEWLGVIWAGGSTNYNSALMSRVSINKDNSKSQVFIKMNSLQADDTALYYCARAAYYGNGLDYWGQGTTLTVSS
VL: DIVMTQSPSSLTVTAGEKVTMSCKSSQTLLNSGNQKNYLTWYQQKPGQPPKLLIYWASTGESGVPDRFTGSGSGTDFTLTISSVQAEDLAVYFCQNAYFYPFTFGGGTKLEIK
B8: 391F1G2 (antibody, V domains shown)
VH: DVQLVESGGGLVQPGGSRKLSCAASGFTFSSFGMHWVRQAPEKGLEWVAYISSGSSPIYYADTVKGRFTISRDNPKNTLFLQMTSLRSEDTAMYFCARIYYGNSFAYWGQGTLVTVSA
VL: DIVMTQSPSSLTVTAGEKVAMSCKSSQTLLNSGNQKNYLTWYQQKPGQPPKLLLYWASTRESGVPDRFTGSGSGTDFTLTISSVQAEDLAVYYCQNAYYYPLTFGSGTKLELK
B9: 391H11H3 (antibody, V domains shown)
VH: DVQLVESGGGLVQPGGSRKLSCAASGFTFSGFGMHWIRQTPEKGLEWVAYISSGSRPIYYADTVQGRFTISRDNPKNTLFLQMTSLRSEDTAMYFCARFYYGNSFDHWGQGTLVTVSS
VL: DIVMTQSPSFLTVTAGEKVTMSCKSSQSLLNSGNQKNYLTWYQQKPGQPPKLLIYWASTRESGVPDRFTGSGSGTDFTLTISSVQAEDLALYYCQNAYSFPLTFGAGTKLELK
B10: 392A11C8 (antibody, V domains shown)
VH: DVQLVESGGGLVQPGGSRKLSCAASGFTFSGFGMHWIRQTPEKGLEWVAYISSGSRPIYYADTVKGRFTISRDNPKNTLFLQMTSLRSEDTAMYFCARFYYGNSFDHWGQGTLVTVSA
VL: DIVMTQSPSFLTVTAGEKVTMSCRSSQSLLNSGNQKNYLTWYQQKPGQPPKLLIYWASTRESGVPDRFTGSGSGTDFTLTISSVQAEDLALYYCQNAYSFPLTFGAGTKLELK
B11: 392C2F10 (antibody, V domains shown)
VH: EVQLQQSGPELVKPGASMKISCKASGYSFTGYTMNWVKQSLGKNLEWIGLINPFNGGTTYNQKFKGKATLTVDKSSSTAYMELLSLTSDDSAVYYCTRGDYWGQGTTLTVSS
VL: DIVMTQSPSSLTVTAGEKVTMSCKSSQSLLNSGNQKNYLTWYQQKPGQPPKLLIYWASTRESGVPDRFAGSGSGTDFTLTISSVQAEDLAVYYCQSDYSYPTFGAGTKLELK
B12: 393C2C5 (antibody, V domains shown)
VH: DVQLVESGGGLVQPGGSRKLSCAASGFTFSSFGMHWVRQAPEKGLEWVAYISSGSSPIYYADTVKGRFTISRDNPKNTLFLQMTSLRSEDTAMYFCATFYYGNSFAYWGQGTLVTVSA
VL: DIVMTQSPSSLTVTAGEKVTMSCKSSQTLLNSGNQKNYLTWYQQKSGQPPKLLIYWASTRESGVPDRFTGSGSGTDFTLTISSVQAEDLAVYYCQNAYSYPVTFGSGTKVELK
B13: 394C2G5 (antibody, V domains shown)
VH: DVQLVESGGGLVQPGGSRKLSCAASGFTFSGFGMHWIRQTPEKGLEWVAYVSSGSRPIYYADTVKGRFTISRDNPKNTLFLQMTSLRSEDTAMYFCARFYYGNSFDHWGQGTLVTVSA
VL: DIVMTQSPSFLTVTAGEKVTMSCKSSQSLLNSGNQKNYLTWYQQKPGQPPKLLIYWASTRESGVPDRFTGSGSGTDFTLTINNVQAEDLALYYCQNAYSFPLTFGAGTKLELT
B14: 395B3C11 (antibody, V domains shown)
VH: DVQLVESGGGLVQPGGSRKLSCAASGFTFSGFGMHWIRQTPEKGLEWVAYISSGSRPIYYADTVQGRFTISRDNPKNTLFLQMTSLRSEDTAMYFCARFYYGNSFDHWGQGTLVTVSS
VL: DIVMTQSPSFLTVTAGEKVTMSCKSSQSLLNSGNQKNYLTWYQQKPGQPPKLLIYWASTRESGVPDRFTGSGSGTDFTLTISSVQAEDLALYYCQNAYSFPLTFGAGTKLELK
B15: 405G8F11 (antibody, V domains shown)
VH: DVQLVESGGGLVQPGGSRKLSCVTSGFTFSSFGMHWVRQAPEKGLEWVAYISSGSSPIYYADTVKGRFTISRDNPKNTLFLQMSSLRSEDTAMYFCARFYYGNSFAYWGQGTLVTVSA
VL: DIVMTQSPSSLTVTAGEKVTMNCKSSQSLLNSGNQKNYLTWYQQKLGQPPKLLMYWASTRESGVPDRFTGSGSGTDFTLTISSVQAEDLAVYFCQSAFSYPLTFGAGTKLELK
B16: 406E1H7 (antibody, V domains shown)
VH: DVQLVESGGGLVQPGGSRKLSCAASGFTFSGFGMHWIRQTPEKGLEWVAYISSGSRPIYYADTVQGRFTISRDNPKNTLFLQMTSLRSEDTAMYFCARFYYGNSFDHWGQGTLVTVSS
VL: DIVMTQSPSFLTVTAGEKVTMSCKSSQSLLNSGNQKNYLTWYQQKPGQPPKLLIYWASTRESGVPDRFTGSGSGTDFTLTISSVQAEDLALYYCQNAYSFPLTFGAGTKLELK
B17: 406F11G8 (antibody, V domains shown)
VH: DVQLVESGGGLVQPGGSRKLSCAASGFTFSSFGMHWVRQAPEKGLEWVAYISSGSSPIYYADTVKGRFTISRDNSKNTLFLQMTSLRSEDTAMYFCARIYYGNSFAYWGQGTLVTVSA
VL: DIVMTQSPSSLTVTAGEKVAMSCKSSQTLLNSGNQKNYLTWYQQKPGQPPKLLIYWASTRESGVPDRFTGSGSGTDFTLTISSVQAEDLAVYYCQNAYYYPLTFGSGTKLELK
B18: 406G3C4 (antibody, V domains shown)
VH: EIQLQQSGPELMKPGASVRISCKASGYSFISYYIYWVKQSHGKGLEWIGYIDPFNGNTNYNQKFKGKATLTVDRSSSTAYIHLNSLTSEDSAVYYCAIVNGYGRGAMDYWGQGTSVTVSS
VL: QIVLTQSPAIMSASPGEKVTMTCSASSSISYMHWYQQKSGTSPKRWIYDTSKLASGVPARFSGSGSGTSYSLTISSMEAEDAATYYCQQWSSNPLTFGDGTKLELK
B19: 200A4H8 (antibody, V domains shown)
VH: QVQLKQSGPGLVQPSQSLSITCTVSGFSLTRYGVHWVRQSPGKGLEWLGVIWSGGNTDYNAAFISRLNIRKDNSKSQVFFKMNSLKPNDTAIYYCARAAYFGNSFDYWGQGTTLTVSS
VL: DIVMTQSPSSLPVTAGEKVTMSCKSSQSLLNSGNQKNYLTWYQQKPGQPPKLLIYWASTRDSGVPDRFTGSGSGTDFTLTISSVQAEDLAVYYCQNNYIYPLTFGAGTKLELK
B20: 407A8G10 (antibody, V domains shown)
VH: DVQLVESGGGLVQPGGSRKLSCAASGFTFSGFGMHWIRQTPEKGLEWVAYISSGSRPIYYADTVKGRFTISRDNPKNTLFLQMTSLRSEDTAMYFCARFYYGNSFDHWGQGTLVTVSA
VL: DIVMTQSPSFLTVTAGEKVTMSCRSSQSLLNSGNQRNYLTWYQQKPGQPPKLLIYWASTRESGVPDRFTGSGSGTDFALTISSVQAEDLALYYCQNAYSFPLTFGAGTKLELK

biological target: human Claudin18.2 (human); assay: cell-based or functional assay

Q: For B1, which “CDC % Relative activity” value is on record?
A: The value was 526%.

Q: And the “CDC EC50” value?
A: The value was 0.3 µg/mL.

Q: How did the “CDC % Relative activity” value turn out when B2 was run?
A: The value was 106%.

Q: And the “CDC EC50” value?
A: The value was 1.54 µg/mL.

Q: Which results are given for B3?
A: CDC % Relative activity: 129%; CDC EC50: 1.27 µg/mL

Q: How did the “CDC % Relative activity” value turn out when B4 was run?
A: The value was 121%.

Q: What about the “CDC EC50” value of the same binder?
A: Its value is 1.35 µg/mL.

Q: What does the source list for B5?
A: CDC % Relative activity: 107%; CDC EC50: 1.52 µg/mL

Q: Which “CDC % Relative activity” value does the source give for B6 here?
A: The value was 151%.

Q: And the “CDC EC50” value?
A: Its value is 1.14 µg/mL.

Q: B7 was tested. Which “CDC % Relative activity” value did it give?
A: Its value is 379%.

Q: And the “CDC EC50” value?
A: Its value is 0.453 µg/mL.

Q: With B8 as the binder, how does the “CDC % Relative activity” value read?
A: Its value is 176%.

Q: And the “CDC EC50” value?
A: Its value is 1.47 µg/mL.

Q: For B9, which “CDC % Relative activity” value is on record?
A: The value was 125%.

Q: And the “CDC EC50” value?
A: The value was 2.07 µg/mL.

Q: Which “CDC % Relative activity” value does the source give for B10 here?
A: Its value is 133%.

Q: What about the “CDC EC50” value of the same binder?
A: The value was 1.95 µg/mL.

Q: How did the “CDC % Relative activity” value turn out when B11 was run?
A: Its value is 5.43%.

Q: And the “CDC EC50” value?
A: The value was 47.6 µg/mL.

Q: Which “CDC % Relative activity” value does the source give for B12 here?
A: The value was 285%.

Q: And the “CDC EC50” value?
A: Its value is 0.909 µg/mL.

Q: Which results are given for B13?
A: CDC % Relative activity: 131%; CDC EC50: 1.98 µg/mL

Q: With B14 as the binder, how does the “CDC % Relative activity” value read?
A: Its value is 144%.

Q: And the “CDC EC50” value?
A: Its value is 1.8 µg/mL.

Q: Which results are given for B15?
A: CDC % Relative activity: 0.08%; CDC EC50: 3220 µg/mL

Q: Which results are given for B16?
A: CDC % Relative activity: 125%; CDC EC50: 2.07 µg/mL

Q: B17 was tested. Which “CDC % Relative activity” value did it give?
A: The value was 101%.

Q: What about the “CDC EC50” value of the same binder?
A: The value was 2.57 µg/mL.

Q: How did the “CDC % Relative activity” value turn out when B18 was run?
A: Its value is 136%.

Q: And the “CDC EC50” value?
A: Its value is 1.93 µg/mL.

Q: What does the source list for B19?
A: CDC % Relative activity: 84.5%; CDC EC50: 2.27 µg/mL

Q: With B20 as the binder, how does the “CDC % Relative activity” value read?
A: Its value is 23.9%.

Q: What about the “CDC EC50” value of the same binder?
A: The value was 10.9 µg/mL.
